Reference: patent publication US20240141060A1 (Novartis, published 2024)
Positions count from the first letter of the chain named.

T1: Cynomolgus CD73/NT5E Protein (His Tag) (Sino Biological Cat: 90192-C08H-50) (cynomolgus monkey, UniProt A0A2K5V5U7 27-547)
T1 construct: treated as one protein; also called Cynomolgus CD73-His; recombinant cynomolgus monkey CD73; not shown: His tag
T1 sequence: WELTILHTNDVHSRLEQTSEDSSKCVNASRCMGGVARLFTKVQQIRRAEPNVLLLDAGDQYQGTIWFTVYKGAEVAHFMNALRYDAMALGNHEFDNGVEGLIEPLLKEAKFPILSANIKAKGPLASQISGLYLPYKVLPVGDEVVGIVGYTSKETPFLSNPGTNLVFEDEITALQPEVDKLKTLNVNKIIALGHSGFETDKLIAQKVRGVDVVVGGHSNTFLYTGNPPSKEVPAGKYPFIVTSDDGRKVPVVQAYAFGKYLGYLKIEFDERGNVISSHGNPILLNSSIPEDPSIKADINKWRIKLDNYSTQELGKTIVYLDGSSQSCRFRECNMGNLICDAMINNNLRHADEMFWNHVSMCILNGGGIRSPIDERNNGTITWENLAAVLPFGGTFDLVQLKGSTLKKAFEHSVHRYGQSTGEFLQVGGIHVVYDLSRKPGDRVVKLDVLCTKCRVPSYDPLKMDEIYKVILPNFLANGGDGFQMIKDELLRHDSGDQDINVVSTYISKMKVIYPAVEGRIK

T2: Recombinant Human 5′-Nucleotidase/CD73 Protein, CF (R&D Systems Cat: 5795-EN) (human, UniProt P21589 27-547)
T2 construct: Bought protein; also called Human CD73-His; recombinant human CD73; not shown: His tag
T2 sequence (looked up): T1 sequence with T199M, A350T, I466V

T3: Recombinant Mouse 5′-Nucleotidase/CD73 Protein, CF (R&D Systems Cat: 4488-EN) (mouse, UniProt Q61503 29-549, limits assumed)
T3 construct: Bought protein; also called Mouse CD73-His; recombinant mouse CD73; not shown: His tag
T3 sequence (looked up): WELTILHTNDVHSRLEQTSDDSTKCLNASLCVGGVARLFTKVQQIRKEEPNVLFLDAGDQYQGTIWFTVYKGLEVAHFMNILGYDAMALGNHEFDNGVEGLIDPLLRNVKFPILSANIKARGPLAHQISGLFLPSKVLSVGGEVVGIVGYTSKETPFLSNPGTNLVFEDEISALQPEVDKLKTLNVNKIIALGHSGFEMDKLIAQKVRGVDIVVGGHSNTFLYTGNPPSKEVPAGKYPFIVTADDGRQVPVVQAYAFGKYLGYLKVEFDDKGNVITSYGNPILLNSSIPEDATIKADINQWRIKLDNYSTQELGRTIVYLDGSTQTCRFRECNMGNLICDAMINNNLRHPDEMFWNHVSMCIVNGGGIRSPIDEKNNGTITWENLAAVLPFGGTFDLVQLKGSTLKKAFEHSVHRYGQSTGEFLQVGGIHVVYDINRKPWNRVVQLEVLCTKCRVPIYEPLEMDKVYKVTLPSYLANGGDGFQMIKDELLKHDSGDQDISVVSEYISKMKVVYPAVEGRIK

B1: 358.C (antibody, V domains shown)
VH: QVQLQESGPGLVKPSETLSLTCTVSGGSISGRYWSWIRQPPGKGLEWIGYIYGTGSTNYNPSLKSRVTISVDTSKNQFSLKLSSVTAADTAVYYCARESQESPYNNWFDPWGQGTLVTVSS
VL: DIQMTQSPSSVSASVGDRVTITCRASQGISSWLAWYQQKPGKAPKLLIYAASSLQSGVPSRFSGSGSGTDFTLTISSLQPEDFATYYCQQGNSFPRTFGGGTKVEIK
B2: 918.C (antibody, V domains shown)
VH: B1 VH with G31S, R32Y, G53S, T54S
VL: B1 VL
B3: 930.C (antibody, V domains shown)
VH: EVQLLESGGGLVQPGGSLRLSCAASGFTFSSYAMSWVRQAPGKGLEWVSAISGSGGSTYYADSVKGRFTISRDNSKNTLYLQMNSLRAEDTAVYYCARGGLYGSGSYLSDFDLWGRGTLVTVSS
VL: EIVLTQSPATLSVSPGERATLSCRASQSVGSNLAWYQQKPGQAPRLLIYGASTRATGIPARFSGSGSGTEFTLTISSLQSEDFAVYYCQQHNAFPYTFGGGTKVEIK
notes: also called 930 IgG1 format
B4: 373 (antibody, V domains shown)
VH: EVQLLESGGGLVQPGGSLRLSCAASGFTFHRYAMSWVRQAPGKGLEWVSAISGSGMNTYYADSVKGRFTISRDNSKNTLYLQMNSLRAEDTAVYYCARGGLYGSGSYLSDFDLWGRGTLVTVSS
VL: B3 VL
notes: also called Lineage 3 child
B5: 373.C (antibody, V domains shown)
VH: B4 VH
VL: B3 VL
B6: 374 (antibody, V domains shown)
VH: B4 VH with H30S, R31Y, Y32N, A50S, S54T, M56G, N57S
VL: B3 VL
notes: also called Lineage 3 child
B7: 374.C (antibody, V domains shown)
VH: B4 VH with H30S, R31Y, Y32N, A50S, S54T, M56G, N57S
VL: B3 VL
B8: 376 (antibody, V domains shown)
VH: B4 VH with H30R, R31S, S52T, M56G, N57L
VL: B3 VL
notes: also called progeny antibody 376; Lineage 3 child
B9: 376.C (antibody, V domains shown)
VH: B4 VH with H30R, R31S, S52T, M56G, N57L
VL: B3 VL
notes: also called 376 IgG1 format
B10: 377 (antibody, V domains shown)
VH: B4 VH with H30K, R31S, M56S, N57Y
VL: B3 VL
notes: also called progeny antibody 377; Lineage 3 child
B11: 377.C (antibody, V domains shown)
VH: B4 VH with H30K, R31S, M56S, N57Y
VL: B3 VL
notes: also called 377 IgG1 format
B12: 379 (antibody, V domains shown)
VH: B4 VH with H30S, A50S, S54T, M56G, N57S
VL: B3 VL
notes: also called progeny antibody 379; Lineage 3 child
B13: 379.C (antibody, V domains shown)
VH: B4 VH with H30S, A50S, S54T, M56G, N57S
VL: B3 VL
notes: also called 379 IgG1 format
B14: 356.C (antibody, V domains shown)
VH: B1 VH with S30E, T54S, N58K
VL: B1 VL
B15: 930 (antibody, V domains shown)
VH: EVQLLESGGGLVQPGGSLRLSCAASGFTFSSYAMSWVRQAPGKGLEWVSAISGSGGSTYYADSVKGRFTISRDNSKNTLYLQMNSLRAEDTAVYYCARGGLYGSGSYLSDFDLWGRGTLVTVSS
VL: B3 VL
notes: also called parental antibody 930; Lineage 3 parent

Columns and labels:
[1] = molecular target: T1, Cynomolgus CD73/NT5E Protein (His Tag) …; assay: ForteBio Octet RED384 (BLI), whole IgG on AHQ sensors, 100 nM antigen, 1:1 model
Description: (§1) Briefly, ForteBio affinity measurements were performed by loading IgGs on-line onto AHQ sensors. Sensors were equilibrated off-line in assay buffer for 30 min and then monitored on-line for 60 seconds for baseline establishment. Sensors with loaded IgGs were exposed to 100 nM antigen for 3 minutes, and afterwards were transferred to assay buffer for 3 min for off-rate measurement. All kinetics were analyzed using the 1:1 binding model. Antigens used were: [0438] Human CD73-His: Recombinant Human 5′-Nucleotidase/CD73 Protein, CF from R&D Systems Cat: 5795-EN [0439] Mouse CD73-His: Recombinant Mouse 5′-Nucleotidase/CD73 Protein, CF from R&D Systems Cat: 4488-EN [0440] Cynomolgus CD73-His: Cynomolgus CD73/NT5E Protein (His Tag) from Sino Biological Cat: 90192-C08H-50

[2] = molecular target: T2, Recombinant Human 5′-Nucleotidase/CD73 …; assay: as above
Description: as §1

[3] = molecular target: T3, Recombinant Mouse 5′-Nucleotidase/CD73 …; assay: as above
Description: as §1

[4] = molecular target: T3, Recombinant Mouse 5′-Nucleotidase/CD73 …; assay: ForteBio Octet RED384 (BLI), whole IgG on AHQ sensors, 1:1 model
Description: as §1

[5] = molecular target: T3, Recombinant Mouse 5′-Nucleotidase/CD73 …; assay: restated binding profile (Octet)
[6] = molecular target: T2, Recombinant Human 5′-Nucleotidase/CD73 …; assay: ForteBio Octet RED384 (BLI), whole IgG on AHQ sensors, 100 nM antigen, 1:1 model; * value approaching upper limit for Kd measurement
Description: as §1

Row | Binder | Kd [1] [nM] | Kd [2] [nM] | binding result [4] | binding result [5] | also measured
1 | B1 | 0.814 | 0.317 | – | – | Kd [3]: 3.51 nM
2 | B2 | – | 1.53 | – | – | Kd [3]: 8.88 nM
3 | B3 | – | 1.83 | no binding (tested: 100 nM antigen) | – | –
4 | B4 | – | – | – | no binding | –
5 | B5 | 0.914 | 0.621 | no binding (tested: 100 nM antigen) | – | –
6 | B6 | – | – | – | no binding | –
7 | B7 | 0.103 | 0.358 | no binding (tested: 100 nM antigen) | – | –
8 | B8 | – | – | – | no binding | –
9 | B9 | – | 0.301 | no binding (tested: 100 nM antigen) | – | –
10 | B10 | – | – | – | no binding | –
11 | B11 | 1.42 | 0.572 | no binding (tested: 100 nM antigen) | – | –
12 | B12 | – | – | – | no binding | –
13 | B13 | 1.62 | 0.55 | no binding (tested: 100 nM antigen) | – | –
14 | B14 | 0.693 | – | – | – | Kd [3]: 0.401 nM; Kd [6]: 0.243 nM
15 | B15 | – | – | – | no binding | –
